From the supplement of paper PMC7877785
± gives the uncertainty stated by the source.

Assay: self-splicing fitness, log relative to wild type (ln ratio); higher = more splicing; Tetrahymena group I intron in knt gene, E. coli kanamycin selection, DiMSum; sequences stand for … in CUCUCU…GGAGGGAAAAGUUAUCAGGCAUGCACCUGGUAGCUAGUCUUUAAACCAAUAGAUUGCAUCGGUUUAAAAGGCAAGACCGUCAAAUUGCGGGAAAGGGGUCAACAGCCGUUCAGUACCAAGUCUCAGGGGAAACUUUGAGAUGGCCUUGCAAAGGGUAUGGUAAUAAGCUGACGGACAUGGUCCUAACCACGCAGCCAAGUCCUAAGUCAACAGAUCUUCUGUUGAUAUGGAUGCAGUUCACAGACUAAAUGUCGGUCGGGGAAGAUGUAUUCUUCUCAUAAGAUAUAGUCGGACCUCUCCUUAAUGGGAGCUAGCGGAUGAAGUGAUGCAACACUGGAGCCGCUGGGAACUAAUUUGUAUGCGAAAGUAUAUUGAUUAGUUUUGGAGUACUCGUGGUCG
In short: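 Colonies from six replicate transformations of E. coli BL21(DE3) were pooled and amplicon-sequenced on an Illumina HiSeq 2500. The library placed an intron with all eight P1ex-region nucleotides randomised inside the knt kanamycin-resistance gene on pET-22b(+), and cells grew overnight at 37°C or 30°C on LB agar with or without 25 μg/mL kanamycin (plus 100 μg/mL carbenicillin, 50 μM IPTG, 0.2% rhamnose). Fitness is the DiMSum error-weighted combination of wild-type-normalised replicate fold changes, kanamycin versus none.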

| Sequence | self-splicing fitness (ln) (30 °C) | self-splicing fitness (ln) (37 °C) |
| --- | --- | --- |
| AAGAAGCAAUAUUACGAAAA | -1.8 ± 0.17 | -1.57 ± 0.18 |
| GGAUAGCAAUAUUACGUGAU | -2.44 ± 0.06 | -1.06 ± 0.074 |
| AUUAAGCAAUAUUACGCGGU | -3.93 ± 0.47 | -3.09 ± 0.35 |
| UCGGAGCAAUAUUACGAAUU | -2.9 ± 0.26 | -2.69 ± 0.28 |
| GUUUAGCAAUAUUACGGUAA | -1.65 ± 0.18 | -1.24 ± 0.14 |
| ACGAAGCAAUAUUACGACUA | -0.269 ± 0.083 | -0.184 ± 0.081 |
| GCCCAGCAAUAUUACGCAGA | -3.37 ± 0.28 | -3.47 ± 0.42 |
| CCAUAGCAAUAUUACGUUAG | -3.33 ± 0.13 | -2.01 ± 0.13 |
| AAACAGCAAUAUUACGUUGU | -4.04 ± 0.1 | -2.73 ± 0.1 |
| UAUAAGCAAUAUUACGGAAU | -2.37 ± 0.22 | -0.6 ± 0.16 |
| CCCCAGCAAUAUUACGCUGG | -2.76 ± 0.11 | -1.73 ± 0.14 |
| UGGUAGCAAUAUUACGGGUC | -3.15 ± 0.4 | -2.9 ± 0.47 |
| GCGGAGCAAUAUUACGUACU | -1.85 ± 0.21 | -1.46 ± 0.22 |
| ACAUAGCAAUAUUACGACCG | -0.782 ± 0.098 | -0.154 ± 0.14 |
| AUAAAGCAAUAUUACGGACG | -0.505 ± 0.11 | -0.793 ± 0.13 |
| UCUGAGCAAUAUUACGUGGA | -2.95 ± 0.29 | -1.63 ± 0.18 |
| UAGCAGCAAUAUUACGUAAC | -3.52 ± 0.19 | -2.42 ± 0.21 |
| ACCUAGCAAUAUUACGUCCC | -1.37 ± 0.26 |  |
| UCGCAGCAAUAUUACGAAGU | -3.51 ± 0.2 | -2.53 ± 0.15 |

| Sequence | self-splicing fitness (ln) (30 °C) | self-splicing fitness (ln) (37 °C) |
| --- | --- | --- |
| AAAGAGCAAUAUUACGCAAU | -3.59 ± 0.21 | -1.65 ± 0.16 |
| UUUCAGCAAUAUUACGACAA | -0.0726 ± 0.12 | -0.913 ± 0.14 |
| CUACAGCAAUAUUACGGUCA | -3.37 ± 0.28 | -1.96 ± 0.24 |
| AUUUAGCAAUAUUACGGCGC | -0.408 ± 0.16 | -0.248 ± 0.22 |
| UUAGAGCAAUAUUACGGUGC | -3.76 ± 0.28 | -2.11 ± 0.36 |
| UCACAGCAAUAUUACGUGCG | -0.577 ± 0.056 | -0.105 ± 0.069 |
| GUUAAGCAAUAUUACGAUUU | -0.759 ± 0.09 | -0.00651 ± 0.14 |
| UAGUAGCAAUAUUACGACCC | -0.998 ± 0.35 | -1.28 ± 0.43 |
| AUUUAGCAAUAUUACGAGAA | -2.09 ± 0.32 | -1.2 ± 0.28 |
| AAAGAGCAAUAUUACGCUGA | -2.1 ± 0.14 | -2.6 ± 0.26 |
| CUACAGCAAUAUUACGCUGU | -3.9 ± 0.2 | -2.8 ± 0.22 |
| UCCCAGCAAUAUUACGUUCG | -3.65 ± 0.2 | -2.96 ± 0.27 |
| CGUUAGCAAUAUUACGUUGC | -3.94 ± 0.34 | -1.95 ± 0.18 |
| UCUUAGCAAUAUUACGAUUU | -3.07 ± 0.18 | -1.09 ± 0.13 |
| AGACAGCAAUAUUACGUCGA | -1.01 ± 0.089 | -1.07 ± 0.12 |
| CGUCAGCAAUAUUACGGUCG | -2.52 ± 0.11 | -2 ± 0.15 |
| ACUAAGCAAUAUUACGGCCA | -0.942 ± 0.13 | 0.00289 ± 0.13 |
| AGCAAGCAAUAUUACGUAAA | -2.29 ± 0.14 | -0.968 ± 0.15 |
